Starred links: 1 amine or outer side, 2 acyl side, 3 side chain; linkers in the order of their positions; H or OH if unused. Non-standard residues stand in square brackets, D forms with d. Tyr(Me) = 4-methoxyphenylalanine (O-methyl-tyrosine), COc1ccc(C[C@H](N[*:1])C(=O)[*:2])cc1; FITC‑maleimide = fluorescein isothiocyanate-maleimide label on the cysteine; Tyr(3-NO2) = N[C@@H](Cc1ccc(O)c([N+](=O)[O-])c1)C(=O)O; Phe(4-NO2) = N[C@@H](Cc1ccc([N+](=O)[O-])cc1)C(=O)O; Phe(4-CN) = N#Cc1ccc(C[C@H](N)C(=O)O)cc1; Phe(4-Cl) = N[C@@H](Cc1ccc(Cl)cc1)C(=O)O; Phe(4-F) = N[C@@H](Cc1ccc(F)cc1)C(=O)O; Phe(4-Me) = Cc1ccc(C[C@H](N)C(=O)O)cc1; Cha = N[C@@H](CC1CCCCC1)C(=O)O; Pal = not defined here
Tests used:
[1] = molecular target: T1, HIF-2α (construct not given) (UniProt Q99814 1-360, limits assumed); assay: HIF-2 ELISA, inhibition of HIF-2α/HIF-1β dimerisation
T1 construct: also called HIF-2 ELISA
T1 sequence (Q99814 1-360 limits assumed): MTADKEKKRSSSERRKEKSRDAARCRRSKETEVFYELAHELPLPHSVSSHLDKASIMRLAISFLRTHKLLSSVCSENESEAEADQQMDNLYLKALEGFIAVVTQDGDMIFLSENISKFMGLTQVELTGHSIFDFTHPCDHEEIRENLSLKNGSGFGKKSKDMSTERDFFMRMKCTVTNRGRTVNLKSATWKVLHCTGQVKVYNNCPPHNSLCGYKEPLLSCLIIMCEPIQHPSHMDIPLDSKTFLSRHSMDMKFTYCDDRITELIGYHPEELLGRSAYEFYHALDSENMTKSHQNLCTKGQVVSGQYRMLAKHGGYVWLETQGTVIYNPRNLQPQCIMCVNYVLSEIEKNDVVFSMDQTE
Method: (§1) 25 μL of His-tagged HIF-α protein (either Trx-1α, Trx-2α, 1α PASB, or 2α PASB) at 0.1 μM in HIF assay buffer were added to individual wells of a Pierce Ni²⁺-coated 96-well plate (Thermo) in triplicate. The plate was rocked gently at room temperature for 1 hr, before washing with 3×200 μL assay buffer (5 min incubation per wash). 25 μL of compounds and/or DMSO at the stated concentrations were added to the plate and allowed to equilibrate for 30 min prior to the addition of 25 μL of GST-1β at 0.2 μM in assay buffer for 1 hr. For conditions in which no compound or DMSO were used, GST-1β was added as a 0.1 μM solution. After incubation with GST-1β, the wells were washed with 3×200 μL assay buffer then 1×200 μL PBS. The wells were then incubated with 100 μL mouse α-GST antibody (Thermo, MS-707-P) at a 1/1000 dilution in PBS supplemented with 0.1% Tween-20 (PBST) and 2% non-fat powdered milk (Marvel) for 1 hr, followed by 3×200 μL washed with PBS. 100 μL of secondary HRP-conjugated α-mouse antibody (GE Healthcare) was added at a 1/6000 dilution in 2% milk/PBST for 1 hr, then washed with 3×200 μL PBS. Wells were incubated with 100 μL of 1-Step Ultra TMB-ELISA solution (Thermo) until a blue colour developed (typically 10-15 min) and the reaction was stopped by the addition of 100 μL of a ⅕ dilution of conc. H₂SO₄, which turned the solution yellow. Absorbance was read at 450 nm using a Tecan Infinite M200 Pro plate reader. Data were fitted and IC₅₀ values determined by non-linear regression using GraphPad Prism 6.

[2] = molecular target: T2, 1α PASB (HIF-1α PASB domain, 238-349) (UniProt Q16665 238-349, labelled with NT-647-NHS dye in MST); assay: MST, HIF-1α PASB domain
T2 construct: range 238-349; not shown: His6 tag of vector pET28, then Met

[3] = molecular target: T3, 2α PASB (HIF-2α PASB domain, 240-350) (UniProt Q99814 240-350, labelled with NT-647-NHS dye in MST; 15N (and 13C 15N) labelled in NMR); assay: MST, HIF-2α PASB domain
T3 construct: range 240-350; also called PAS B domain of HIF-2α; not shown: His6 tag of vector pET28, then Met
T3 sequence (Q99814 240-350): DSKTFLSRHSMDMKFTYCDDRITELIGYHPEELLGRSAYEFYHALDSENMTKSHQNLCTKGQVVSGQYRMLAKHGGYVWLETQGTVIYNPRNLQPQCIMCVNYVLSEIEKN

[4] = molecular target: T4, HIF-1α (construct not given) (UniProt Q16665 1-350, limits assumed); assay: HIF-1 ELISA, inhibition of HIF-1α/HIF-1β dimerisation
T4 construct: also called HIF-1 ELISA
Method: as §1

[5] = molecular target: T2, 1α PASB (HIF-1α PASB domain, 238-349); assay: MST, peptide titrated into labelled PAS-B domain of HIF-1α
[6] = molecular target: T3, 2α PASB (HIF-2α PASB domain, 240-350); assay: MST, peptide titrated into labelled PAS-B domain of HIF-2α
[7] = molecular target: T5, 1β PASB (HIF-1β PASB domain, 356-474) (UniProt P27540 356-474); assay: thermal shift assay, 1 mM peptide
T5 construct: range 356-474; not shown: His6 tag of vector pET28
T5 sequence (P27540 356-474): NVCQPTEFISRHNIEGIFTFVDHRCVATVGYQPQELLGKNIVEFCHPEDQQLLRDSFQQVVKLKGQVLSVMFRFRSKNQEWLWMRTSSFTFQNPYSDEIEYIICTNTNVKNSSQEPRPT
Method: (§2) Thermal denaturation of HIF proteins was performed in 20 μL reactions in triplicate using a Bio-Rad CFX Connect Real-Time System. Proteins were used at either 5 μM (Trx-1α, Trx-2α and GST-1β) or 15 μM (His-tagged PASB domains) in HIF assay buffer, with 10 mM DTT and SYPRO orange dye (Life Technologies) at a final concentration of 8×(relative to 5000×stock), and supplemented with either DMSO or compound dissolved in DMSO at the stated concentrations. The reaction plate was assembled on ice, then transferred to the pre-chilled thermal cycler, held at 10° C. for 5 min (heated lid, 105° C.), then the temperature ramped to 95° C. Fluorescence was recorded at 0.5° C. increments, holding for 5 sec at each temperature. Data were plotted using GraphPad Prism 6, and melting temperatures calculated using the first derivative method in which the peak (i.e. the steepest transition between data points) represents the point at which 50% of the protein sample is denatured. Errors are quoted as the inherent error associated with the first derivative of the data, i.e. ±0.25° C. for Tₘ values and ±0.5° C. for ΔTₘ values.

[8] = molecular target: T6, Trx-1α (thioredoxin-tagged HIF-1α 1-350, bHLH-PASA-PASB) (UniProt Q16665 1-350); assay: thermal shift assay, 1 mM peptide
T6 construct: range 1-350; not shown: Thioredoxin-His6 tag of vector pET32
Method: as §2

[9] = molecular target: T2, 1α PASB (HIF-1α PASB domain, 238-349); assay: MST, peptide titrated into fluorescently labelled 1α PASB
Method: (§3) Microscale thermophoresis (MST) was performed to determine Kd of peptide binding to fluorescently labelled HIF-1α/2α PASB domains.
(§4) 0.5 mL of 1α or 2α PASB protein stocks in HIF storage/assay buffer were dialysed against 1 L of MST labelling buffer (100 mM NaHCO₃ pH 8, 150 mM NaCl and 5% glycerol) for 1.5 hr at 4° C., then against 1 L of fresh labelling buffer at 4° C. overnight. 100 μL of each dialysed protein diluted to 10 μM were incubated with 100 μL of 30 μM NT-647-NHS dye (NanoTemper protein labelling kit) for 20 min in the dark, then exchanged into 650 μL HIF assay buffer supplemented with 0.05% Tween-20 using the supplied gravity flow purification columns. A dilution series of cyclo-CRVIIF (SEQ ID NO 4) or alanine scan analogues (in HIF assay buffer, 10% DMSO) was mixed with equal volumes of labelled 1α PASB or 2α PASB at 100 nM and allowed to equilibrate for 10 min. Samples were loaded into hydrophilic capillaries and, after optimising the power, MST was performed using a Monolith […] instrument (NanoTemper). Data were analysed using NT Analysis Software using the Temperature Jump analysis mode.

[10] = molecular target: T3, 2α PASB (HIF-2α PASB domain, 240-350); assay: MST, peptide titrated into fluorescently labelled 2α PASB
Method: as §3, §4

[11] = molecular target: T6, Trx-1α (thioredoxin-tagged HIF-1α …); assay: competition ELISA: His-tagged Trx-1α on Ni plate, peptide titrated, binding of GST-1β (blocked partner) detected with anti-GST, A450
Method: (§5) IC₅₀ values for the compound=3.7 μM/8.8 μM for 1α/2α.
as §1, with “Wells were incubated with 100 μL of 1-Step Ultra TMB-ELISA solution (Thermo) until a blue colour developed (typically 10-15 min) and the reaction was stopped by the addition of 100 μL of a ⅕ dilution of conc. H₂SO₄, which turned the solution yellow.” left out

[12] = molecular target: T7, Trx-2α (thioredoxin-tagged HIF-2α 1-360, bHLH-PASA-PASB) (UniProt Q99814 1-360); assay: competition ELISA: His-tagged Trx-2α on Ni plate, peptide titrated, binding of GST-1β (blocked partner) detected with anti-GST, A450
T7 construct: range 1-360; not shown: Thioredoxin-His6 tag of vector pET32
T7 sequence (Q99814 1-360): as the sequence (Q99814 1-360 limits assumed) above
Method: as §5
as §1, with “Wells were incubated with 100 μL of 1-Step Ultra TMB-ELISA solution (Thermo) until a blue colour developed (typically 10-15 min) and the reaction was stopped by the addition of 100 μL of a ⅕ dilution of conc. H₂SO₄, which turned the solution yellow.” left out

[13] = molecular target: T2, 1α PASB (HIF-1α PASB domain, 238-349); assay: thermal shift assay, 1 mM peptide
Method: as §2

[14] = molecular target: T3, 2α PASB (HIF-2α PASB domain, 240-350); assay: thermal shift assay, 1 mM peptide
Method: as §2

[15] = molecular target: T7, Trx-2α (thioredoxin-tagged HIF-2α …); assay: thermal shift assay, 1 mM peptide
Method: as §2

[16] = molecular target: T1, HIF-2α (construct not stated at the …); assay: HIF-2 ELISA, inhibition of HIF-2α/HIF-1β dimerisation; remark: listed apart in the source
[17] = molecular target: T2, 1α PASB (HIF-1α PASB domain, 238-349); assay: competition ELISA: 1α PASB on Ni plate, peptide titrated, blocked partner GST-1β; the value stands in the panel without a name, the ELISA fits give IC50; the fall is only partial
Method: as §1, with “Wells were incubated with 100 μL of 1-Step Ultra TMB-ELISA solution (Thermo) until a blue colour developed (typically 10-15 min) and the reaction was stopped by the addition of 100 μL of a ⅕ dilution of conc. H₂SO₄, which turned the solution yellow.” left out

Binder | IC50 [1] [µM] | Kd [2] [µM] | Kd [3] [µM] | IC50 [4] [µM] | other results
cyclo(CRLLI[Pal]) (not fully specified; printed as CRLLI(Pal); reading uncertain, also called CRLLIX where X = Pal) [CRLLI(Pal)] | 212 | 69.2 | 45.3 | 294 | –
cyclo(CRLLI[Tyr(Me)]) (SMILES CC[C@H](C)[C@@H]1NC(=O)[C@H](CC(C)C)NC(=O)[C@H](CC(C)C)NC(=O)[C@H](CCCNC(=N)N)NC(=O)[C@H](CS)NC(=O)[C@H](Cc2ccc(OC)cc2)NC1=O, also called CRLLIX where X = 4-MeO-F) [CRLLI(4-MeO-F)] | 15.3 | 10.8 | 4.5 | 36.7 | –
cyclo(CRLLI[Phe(4-CN)]) (also called CRLLIX where X = 4-CN-F) [CRLLI(4-CN-F)] | 6.27 | 10 | 9.46 | 44.2 | –
SGWEMIQRR (cyclic peptide (first amino acid joined to the last), One of the 4 cyclic peptide hits) [cyclo-SGWEMIQRR (SEQ ID NO 5)] | – | – | – | – | ΔTm [7]: -0.5 ° C.; ΔTm [8]: -2.5 ° C.
CRLLIF (cyclic peptide (cyclo-, first amino acid joined to the last), One of the 4 cyclic peptide hits of the SICLOPPS screen; made by solid phase synthesis; also called CRLLIX where X = F) [cyclo-CRLLIF (SEQ ID NO 3)] | 98.3 | 36.9 | 15.4 | 71.3 | Kd [9]: 13.5 µM; Kd [10]: 59.6 µM; IC50 [11]: 102 µM; IC50 [12]: 186 µM; ΔTm [13]: -2 ° C.; ΔTm [14]: -4 ° C.; ΔTm [7]: -1 ° C.; ΔTm [15]: -4 ° C.; ΔTm [8]: 0.5 ° C.
cyclo(C(FITC‑maleimide)KLIIF) [FITC-CKLIIF (SEQ ID NO 2)] | – | – | – | – | Activity as measured by a HIF-2 ELISA [16]: 0.77 µM
cyclo(C(FITC‑maleimide)RLLIF) [FITC-CRLLIF (SEQ ID NO 3)] | – | – | – | – | Activity as measured by a HIF-2 ELISA [16]: 0.47 µM
CRAIIF (also called alanine scan peptide of CRVIIF, position 3 (V to A)) | – | – | – | – | IC50 [17]: 51 µM
cyclo(CRLLI[Tyr(3-NO2)]) (SMILES CC[C@H](C)[C@@H]1NC(=O)[C@H](CC(C)C)NC(=O)[C@H](CC(C)C)NC(=O)[C@H](CCCNC(=N)N)NC(=O)[C@H](CS)NC(=O)[C@H](Cc2ccc(O)c([N+](=O)[O-])c2)NC1=O, also called CRLLIX where X = 3-NO2-Y) [CRLLI(3-NO2-Y)] | 22.7 | 90.7 | 49 | 19.5 | –

Continued by falling Kd [2], values first:

IC50 [1] [µM] | Kd [2] [µM] | Kd [3] [µM] | IC50 [4] [µM] | Binder | other results
6.07 | 9.61 | 5.27 | 11.9 | cyclo(CRLLI[Phe(4-Me)]) (also called CRLLIX where X = 4-Me-F) [CRLLI(4-Me-F)] | Kd [5]: 11.4 µM; Kd [6]: 5.4 µM
– | 7.7 | 9.6 | – | CRLLIW (cyclic analogue of cyclo-CRLLIF) | –
11.5 | 6.84 | 7.41 | 37.5 | cyclo(CRLLI[Phe(4-F)]) (also called CRLLIX where X = 4-F-F) [CRLLI(4-F-F)] | –
12 | 3.73 | 5.76 | 27.8 | cyclo(CRLLI[Phe(4-NO2)]) (also called CRLLIX where X = 4-NO2-F) [CRLLI(4-NO2-F)] | –
4.88 | 2.8 | 4.15 | 13.2 | cyclo(CRLLI[Phe(4-Cl)]) (also called CRLLIX where X = 4-Cl-F) [CRLLI(4-Cl-F)] | Kd [6]: 4.2 µM
19.8 | 1.37 | 5.63 | 25.5 | cyclo(CRLLI[Cha]) (also called CRLLIX where X = Cha) [CRLLI(Cha)] | Kd [5]: 4.1 µM; Kd [6]: 5.8 µM
